The values that follow come from patent US20240109958.

Series [1] has as its target Ub vinyl sulfone HA-tagged probe (Ub-VS-HA; Cat #U-212, Boston Biochem) (UniProt P0CG48).
Series [2] has as its target lysine-less catalytically inactive UCHL5 (UniProt Q9Y5K5).
The target of series [3] is lysine-less catalytically inactive UCHL1 (UniProt P09936).

Turning to “N-terminally ubiquitinated mimetic Ub^G76V_UCHL1”, the “modification by the suicide probe Ub-VS (immunoblot)” value in series [1] is “Ub^G76V_UCHL1 remained largely unmodified”.

Turning to “N-terminally ubiquitinated mimetic Ub^G76V_UCHL5”, the “modification by the suicide probe Ub-VS (immunoblot)” value in series [1] is given as “Ub^G76V_UCHL5 rapidly reacted with Ub-VS”.

As to UBE2W (Cat #E2-740, Boston Biochem), the “in vitro ubiquitination assay with purified proteins (immunoblot)” value in series [2] is “UBE2W can monoubiquitinate lysine-less versions of both UCHL1 and UCHL5”; in series [3], “UBE2W can monoubiquitinate lysine-less versions of both UCHL1 and UCHL5”.
